Source: US20250282887A1 (Amgen, published 2025)

What was measured:
human MAGEA12 = target: T1, human MAGEA12 (human, UniProt P43365 1-314); test: IHC, FFPE CHO cells transfected with human MAGEA12
T1 construct: whole, on cells; FFPE cell pellets
Text: Negative control cells included parental Chinese hamster ovary (CHO) cells, CHO cells stably transfected with mCherry Vector Control (minus Myc/DDK tags), CHO cells stably transfected with mCherry-human DCAF4L2 (plus Myc/DDK tags). The cross-reactivity control cells included CHO cells transfected with mCherry Vector Control (plus Myc/DDK tags) with one of the human MAGE-B or MAGE-A family members (MAGEA1, MAGEA2, MAGEA3, MAGEA4, MAGEA5, MAGEA6, MAGEA8, MAGEA9, MAGEA11, MAGEA12, MAGEB1, MAGEB3, MAGEB4, MAGEB5, MAGEB6, MAGEB10, MAGEB16, MAGEB17, MAGEB18). Positive control cell lines included CHO cells transfected with mCherry Vector (plus Myc/DDK tags) with human MAGE-B2 or CHO cells transfected with mCherry Vector (open reading frame (ORF); minus Myc/DDK tags) with human MAGEB2, and thirteen human cancer cell lines with known endogenous RNA expression level of MAGEB2 (U266B1, T98G, KMM-1, U20S, CFPAC-1, SCaBER, UACC-257, CFPAC-1, VMRC-LCD, NCI-H1703, UM-UC-3, NCI-H1395, NCIH82).
(§1) FFPE samples were sectioned at 4 μm and mounted on positive charged glass slides. After mounting, paraffin sections were air-dried at room temperature. FFPE TMA samples were received as freshly sectioned and mounted on glass slides. The fully automated IHC assay was performed on a Discovery Ultra Stainer (Ventana Medical Systems, Tucson, AZ) using Ventana Anti-Rabbit HQ (cat #760-4815), Ventana Anti-HQ HRP (cat #760-4820), and Ventana Antibody Diluent with Casein (cat #760-219) (Ventana Medical Systems, Tucson, AZ). The slides were baked on the Discovery Ultra Stainer at 60° C. for 8 minutes, de-paraffinized with Ventana Discovery wash (cat #950-510) for 3 cycles (8 minutes each) at 69° C., and underwent cell conditioning (target retrieval) at 95° C. for 16 minutes (for cell arrays) or 32 minutes (tissues or TMAs) in CC1 buffer (cat #950-500). Following this, slides were incubated with Background Sniper (cat #BS966M, Biocare Medical, Pacheco, CA) in a Ventana Option Prep kit (cat #771-751) for 28 minutes, incubated with CM inhibitor (a part of the Ventana DAB kit cat #760-159) for 12 minutes, and incubated for 1 h at RT with MAGE-B2 antibody diluted with Ventana diluent with Casein in a Ventana Prep kit (cat #770-001) (working concentration at 0.1 μg/ml for cell pellet, or 1-5 ug/ml for tissues) or with a matched concentration of isotype control Rabbit IgG1 antibody.

human MAGEA11 = target: T2, human MAGEA11 (human, UniProt P43364 1-429); test: IHC, FFPE CHO cells transfected with human MAGEA11
T2 construct: whole, on cells; Transfected into CHO cells with Myc/DDK tags
T2 sequence (looked up): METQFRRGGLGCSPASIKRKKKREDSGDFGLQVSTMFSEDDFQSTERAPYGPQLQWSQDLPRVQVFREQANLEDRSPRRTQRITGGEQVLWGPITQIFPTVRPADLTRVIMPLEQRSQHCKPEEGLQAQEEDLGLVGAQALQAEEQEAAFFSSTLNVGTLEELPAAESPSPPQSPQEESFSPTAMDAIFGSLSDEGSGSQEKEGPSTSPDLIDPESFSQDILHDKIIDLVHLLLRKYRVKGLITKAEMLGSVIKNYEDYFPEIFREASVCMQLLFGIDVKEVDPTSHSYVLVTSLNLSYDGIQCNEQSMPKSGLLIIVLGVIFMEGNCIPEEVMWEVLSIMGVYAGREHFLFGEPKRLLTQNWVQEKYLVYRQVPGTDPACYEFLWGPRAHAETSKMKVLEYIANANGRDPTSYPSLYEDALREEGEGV
Experimental: as §1, with “antibody. Following this, slides were incubated with the Ventana Anti-Rabbit HQ (cat #760-4815) for 28 minutes at RT, Ventana Anti-HQ HRP (cat #760-4820) for 28 minutes at RT, and signals detected with Ventana DAB chromogen kit (cat #760-159) for 5 minutes at RT. Slides were counterstained with Ventana Hematoxylin II (cat #5266726001) for 8 minutes and Ventana Bluing reagent (cat #526676900) for 4 minutes. Slides were coverslipped and digitized using an Aperio AT2 scanner (Leica Biosystems Inc, Buffalo Grove, IL).” for “antibody.”

human MAGEA3 = target: T3, human MAGEA3 (human, UniProt P43357 1-314); test: IHC, FFPE CHO cells transfected with human MAGEA3
T3 construct: whole, on cells; FFPE cell pellets
T3 sequence (P43357 whole entry): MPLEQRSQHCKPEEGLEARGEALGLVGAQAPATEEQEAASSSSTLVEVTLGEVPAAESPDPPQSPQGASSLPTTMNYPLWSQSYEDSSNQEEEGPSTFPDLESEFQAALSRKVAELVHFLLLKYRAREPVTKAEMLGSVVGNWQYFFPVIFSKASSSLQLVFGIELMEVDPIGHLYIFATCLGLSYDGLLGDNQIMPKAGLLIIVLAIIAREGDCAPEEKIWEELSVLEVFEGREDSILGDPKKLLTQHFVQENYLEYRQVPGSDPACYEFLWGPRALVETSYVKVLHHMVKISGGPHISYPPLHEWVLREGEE
Experimental: as §1, with “antibody. Following this, slides were incubated with the Ventana Anti-Rabbit HQ (cat #760-4815) for 28 minutes at RT, Ventana Anti-HQ HRP (cat #760-4820) for 28 minutes at RT, and signals detected with Ventana DAB chromogen kit (cat #760-159) for 5 minutes at RT. Slides were counterstained with Ventana Hematoxylin II (cat #5266726001) for 8 minutes and Ventana Bluing reagent (cat #526676900) for 4 minutes. Slides were coverslipped and digitized using an Aperio AT2 scanner (Leica Biosystems Inc, Buffalo Grove, IL).” for “antibody.”

Measured: binding result

T1 sequence (P43365 whole entry): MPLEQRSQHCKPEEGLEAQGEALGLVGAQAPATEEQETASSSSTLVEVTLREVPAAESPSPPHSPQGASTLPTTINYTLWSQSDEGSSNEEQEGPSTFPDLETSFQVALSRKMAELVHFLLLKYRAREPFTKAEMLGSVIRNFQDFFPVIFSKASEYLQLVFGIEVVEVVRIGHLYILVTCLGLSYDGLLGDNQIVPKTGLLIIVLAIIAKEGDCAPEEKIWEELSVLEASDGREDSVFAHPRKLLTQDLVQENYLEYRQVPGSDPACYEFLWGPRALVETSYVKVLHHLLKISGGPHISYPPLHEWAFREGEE

B1: 1I14 (antibody, V domains shown)
VH: QSVEESGGRLVTPGTPLTLTCTISGFSLSSYAMSWVRQAPGKGLEWIGSIGGGGSAVYASWAKGRFTISKTSTTVDLRITSPTTEDTAMYFCGRGFYSIDLWGPGTLVTVSS
VL: DVVMTQTPASVEATVGGTVTIKCQSSQSVYDNNALAWYQQNAGQRPRLLIYGASTLASGVPSRFSASGSGTEFTLTISDLECADAATYYCQCTYYVSSYQNDFGGGTEVVVKG
notes: also called MAGE-B2 (1i14)
no binding (tested: 0.1 µg/ml): all assays above

B2: 1C3 (antibody, V domains shown)
VH: QSLEESGGGLVQPEGSLTLTCTAFGVTLTNYYICWVRQAPGKGLEWVGCIDNANGRTYYASWAKGRFTISKTSSTTGTLQMTSLTAADTATYFCARSLATPLWGPGTLVTVSS
VL: DIVMTQTPSSVEAAVGGTVTIKCQASQNISSYLAWYQQKPGQPPKLLIYRASTLASGVPSRFKGSGSGTQFTLTISDLECADAATYYCQSYDDSRSSNFFYAFGGGTEVVVKG
notes: also called MAGE-B2 (IC3); anti-MAGEB2 antibody 1C3
no binding (tested: 0.1 µg/ml): all assays above

B3: 4G17 (antibody, IgG1, V domains shown)
VH: QSLEESGGGLVQPEGSLTLTCTASGVTLSNYYICWVRQAPGKGLEWIGCIDNVNGRTYYASWAKGRFTISKTSSTTGTLQMTSLTAADTATYFCARSLATPLWGPGTLVTVSS
VL: DIVMTQTPASVEAAVGGTVTIKCQASQNIDSYLAWYQQKPGQPPKLLIYRASTLASGVPSRFKGSGSGTEFTLTISDLECADAATYYCQSYDDSRSSSFFYGFGGGTEVVVK
notes: Rabbit monoclonal IgG1; Tested as supernatant and as small batch purified antibody; also called MAGE-B2 (4G17); anti-MAGEB2 antibody 4G17
no binding (tested: 0.1 µg/ml): all assays above

B4: 1J15 (antibody, IgG1, V domains shown)
VH: QSLEESGGGLVQPEGSLTLTCTAFGFTLNNYYICWVRQAPGKGLEWIACIDNANGRTYYASWAKGRFTISKTSSTTVTLQMTSLTAADTATYFCARSLSTPLWGPGTLVTVSS
VL: DIVMTQTPASVEAAVGGTVTIKCQASQSISSYLSWYQQKPGQPPKLLIYRASTLASGVPSRFRGSGSGTQFTLTISDLECADAATYYCQSYDDSSDNNFFYGFGGGTEVVVR
notes: Rabbit monoclonal IgG1; Tested as supernatant and as small batch purified antibody; also called MAGE-B2 (IJ15); anti-MAGEB2 antibody 1J15
no binding (tested: 0.1 µg/ml): all assays above
